Laboratory results reported in patent publication US20050266242A1.

Target: biotinylated NM^K184C seed (Saccharomyces cerevisiae) (UniProt P05453)
Assay: capture of biotinylated seed (50% w/w) on Streptavidin-coated Dynabeads, SDS wash, scintillation counting

Sequence of biotinylated NM^K184C seed (Saccharomyces cerevisiae) (P05453 1-253 K184C): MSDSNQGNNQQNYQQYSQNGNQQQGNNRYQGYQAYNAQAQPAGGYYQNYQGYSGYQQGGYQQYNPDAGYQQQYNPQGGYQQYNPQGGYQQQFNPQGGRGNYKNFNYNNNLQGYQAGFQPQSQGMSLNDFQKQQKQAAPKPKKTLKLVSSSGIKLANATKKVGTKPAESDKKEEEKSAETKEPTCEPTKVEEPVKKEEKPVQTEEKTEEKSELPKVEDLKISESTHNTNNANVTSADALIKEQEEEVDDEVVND

NM^T158C-iodo[1-14C]acetamide (from UniProt P05453 1-253)
fraction of seed-bound NM soluble in SDS at early time points: 50%
